Laboratory results: patent US20240000957A1 (published 2024)
*1 amine or outer side, *2 acyl side, *3 side chain or, on linkers, in order; H or OH if unused. Bridges are numbered along the chain shown (N, C = ends). Where no end group is shown, it is not given here. [ ]: non-standard residue; d: D form. TATA = O=C(CC[*:1])N1CN(C(=O)CC[*:2])CN(C(=O)CC[*:3])C1; 2Nal = N[C@@H](Cc1ccc2ccccc2c1)C(=O)O; Hyp = O=C(O)[C@@H]1C[C@@H](O)CN1; hArg = N=C(N)NCCCC[C@H](N)C(=O)O; βAla = NCCC(=O)O; Sar = CNCC(=O)O

Legend:
[1] = target: T1, Human EphA2 (Ecto), C-terminal polyHis (Human, UniProt P29317 24-537); test: FP competition vs Reference Compound C (Study 2)
T1 construct: extracellular domain; R&D systems 3035-A2 or in-house

[2] = target: T1, Human EphA2 (Ecto), C-terminal polyHis; test: FP competition vs Reference Compound C
Mouse EphA2 (Ecto) [3] = target: T2, Mouse EphA2 (Ecto) (Mouse, UniProt Q03145 26-538); test: FP competition vs Reference Compound C
T2 construct: extracellular domain; Fluorescence polarisation assays; not shown: Fc fusion (R&D Systems 639-A2) or C-terminal polyHis (Sino Biological 50586-M08H)

[4] = target: T3, Rat EphA2 (ligand binding), C-terminal polyHis (Rat); test: FP competition vs Reference Compound C (Study 2)
T3 construct: In-house

[5] = target: T1, Human EphA2 (Ecto), C-terminal polyHis; test: FP competition vs Reference Compound C (Study 2); remark: listed apart in the source
Mouse EphA2 (Ecto) [6] = target: T2, Mouse EphA2 (Ecto); test: FP competition vs Reference Compound C (Study 2)
Human EphA2 = target: T4, Human EphA2 (Human, UniProt P29317 24-537, limits assumed, biotinylated, 0.95 mol biotin/monomer); test: SPR, biotinylated EphA2 on streptavidin chip
T4 construct: also called Eph receptor tyrosine kinase A2
T4 sequence (P29317 24-537 limits assumed): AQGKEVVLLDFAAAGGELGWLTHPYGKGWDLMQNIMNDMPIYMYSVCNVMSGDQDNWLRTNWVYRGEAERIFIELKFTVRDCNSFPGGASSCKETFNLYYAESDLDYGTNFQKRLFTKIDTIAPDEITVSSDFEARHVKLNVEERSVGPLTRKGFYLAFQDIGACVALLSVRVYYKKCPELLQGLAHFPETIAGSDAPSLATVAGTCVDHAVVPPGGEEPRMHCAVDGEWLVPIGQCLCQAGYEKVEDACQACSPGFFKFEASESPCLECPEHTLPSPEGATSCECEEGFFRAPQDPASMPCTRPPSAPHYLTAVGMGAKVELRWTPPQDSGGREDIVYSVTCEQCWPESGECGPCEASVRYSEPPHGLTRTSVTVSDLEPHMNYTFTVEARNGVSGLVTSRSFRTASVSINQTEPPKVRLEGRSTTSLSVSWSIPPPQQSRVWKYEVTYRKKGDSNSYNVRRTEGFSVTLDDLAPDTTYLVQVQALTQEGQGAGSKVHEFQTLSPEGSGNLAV

T2 sequence (Q03145 26-538): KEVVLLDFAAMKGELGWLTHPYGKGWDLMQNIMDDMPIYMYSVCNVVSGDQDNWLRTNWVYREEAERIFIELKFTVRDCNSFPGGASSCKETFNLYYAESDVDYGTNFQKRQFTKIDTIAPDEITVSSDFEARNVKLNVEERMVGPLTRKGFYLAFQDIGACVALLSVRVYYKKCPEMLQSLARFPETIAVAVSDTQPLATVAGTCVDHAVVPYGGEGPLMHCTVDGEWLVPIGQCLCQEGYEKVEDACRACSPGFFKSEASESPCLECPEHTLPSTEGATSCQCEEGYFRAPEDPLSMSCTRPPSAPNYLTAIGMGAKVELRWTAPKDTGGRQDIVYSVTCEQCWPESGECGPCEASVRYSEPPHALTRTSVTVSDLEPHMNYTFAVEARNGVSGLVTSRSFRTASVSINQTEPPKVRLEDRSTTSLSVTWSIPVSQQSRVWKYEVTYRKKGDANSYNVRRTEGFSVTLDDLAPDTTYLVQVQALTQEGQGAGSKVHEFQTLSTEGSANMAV
T1 sequence (P29317 24-537): as the sequence (P29317 24-537 limits assumed) above

B1: BCY6035 (peptide)
peptide: Ac-CPLVNPLCLHPGWTCLHG
modifications: linker 1-8-15 via TATA; not fully specified (C-terminus); also: DM1-SS- conjugated, site not given here
notes: Bicycle drug conjugate (BDC)
[1]
  Ki: 15.2 nM

## CPLVNPLCLHPGWTCLHG (N-terminal Ac; C-terminal -Sar6-(D-K); TATA scaffold on the 3 Cys, also called Compound 77) [BCY6019]
[2]
  Ki: 5.41 nM
Mouse EphA2 (Ecto) [3]
  Ki: 48.2 nM

B2: BCY6037 (peptide)
peptide: Ac-CPLVNPLCLHPGWTCLHG
modifications: linker 1-8-15 via TATA; not fully specified (C-terminus); also: ValCit-MMAE conjugated, site not given here
notes: Bicycle drug conjugate (BDC)
[1]
  Ki: 7.3 nM

B3: BCY6038 (peptide)
peptide: Ac-CPLVNPLCLHPGWTCLHG
modifications: linker 1-8-15 via TATA; not fully specified (C-terminus); also: TrpCit-MMAE conjugated, site not given here
notes: Bicycle drug conjugate (BDC)
[1]
  Ki: 2.8 nM

B4: BCY6055 (peptide)
peptide: AXDCPLVNPLCLHPGWTC
modifications: not fully specified; as BCY6014 (N-terminal (β-Ala)-Sar10; HArg; TATA scaffold on the 3 Cys) + DM1-SS-(Me2)-
notes: Bicycle drug conjugate (BDC)
[1]
  Ki: 15.8 nM

## CPLVNPLCLHPGWSCRGQ (N-terminal Ac; C-terminal -Sar6-(D-K); TATA scaffold on the 3 Cys, also called Compound 91) [BCY6042]
[2]
  Ki: 5.98 nM
Mouse EphA2 (Ecto) [3]
  Ki: 49.9 nM

B5: BCY6136 (peptide)
peptide: [βAla][Sar][Sar][Sar][Sar][Sar][Sar][Sar][Sar][Sar][Sar]A[hArg]DC[Hyp]LVNPLCLHP[dD]W[hArg]C
modifications: linker 15-22-29 via TATA; not fully specified (N-terminus, C-terminus); also: ValCit-MMAE conjugate, site not given here
notes: Bicycle drug conjugate (BDC); also called BT5528
[4]
  Ki: 3.2 nM

B6: Compound 89 (peptide)
peptide: [βAla][Sar][Sar][Sar][Sar][Sar][Sar][Sar][Sar][Sar][Sar]ACPLVNPLCLHPGWSCRGQ
modifications: linker 13-20-27 via TATA; not fully specified (C-terminus); printed as (β-Ala)-Sar10-ACPLVNPLCLHPGWSCRGQ
[2]
  Ki: 2.86 nM
Mouse EphA2 (Ecto) [3]
  Ki: 29.6 nM

B7: BCY6105 (peptide)
peptide: AXDCPLVNPLCLHPGWTC
modifications: not fully specified; as BCY6014 (N-terminal (β-Ala)-Sar10; HArg; TATA scaffold on the 3 Cys) + MMAE-Ala-Ala-Asn
notes: Bicycle drug conjugate (BDC)
[5]
  Ki: 8.86 nM

B8: BCY6063 (peptide)
peptide: AXDCPLVNPLCLHPGWTC
modifications: not fully specified; as BCY6014 (N-terminal (β-Ala)-Sar10; HArg; TATA scaffold on the 3 Cys) + Non-cleavable (MMAE)
notes: Bicycle drug conjugate (BDC)
[1]
  Ki: 7.8 nM
Mouse EphA2 (Ecto) [6]
  Ki: 66.8 nM

## ACPLVNPLCLYGSWKCA (linker 2-9-16 via TATA; not fully specified (C-terminus)) [Compound 63]
[2]
  Ki: 59 nM

B9: BCY6034 (peptide)
peptide: AXDCPLVNPLCLHPGWTC
modifications: not fully specified; N-terminal (β-Ala)-Sar10 spacer precedes SEQ ID NO: 11; HArg (homoarginine) at residue 2 of SEQ ID NO: 11; three Cys cyclised on the TATA scaffold; TrpCit-MMAE (MMAE-PABC-Cit-Trp-glutarate) on the N-terminal amine
Human EphA2
  Kd: 1.64 nM
  t1/2: 3.2 min

B10: Compound 68 (peptide)
peptide: Ac-ARDCPLVNPLCLHPGWTCA
modifications: linker 4-11-18 via TATA; not fully specified (C-terminus); printed as Ac-ARDCPLVNPLCLHPGWTCA-Sar6-(D-K)
[2]
  Ki: 19.3 nM
Mouse EphA2 (Ecto) [3]
  Ki: 166 nM

## ACPLVNPLCLHPGWSCRGQ (linker 2-9-16 via TATA, also called Compound 87)
[2]
  Ki: 2.57 nM
Mouse EphA2 (Ecto) [3]
  Ki: 18.6 nM

B11: BCY6064 (peptide)
peptide: AXDCPLVNPLCLHPGWTC
modifications: not fully specified; as BCY6014 (N-terminal (β-Ala)-Sar10; HArg; TATA scaffold on the 3 Cys) + Non-cleavable (DM1)
notes: Bicycle drug conjugate (BDC)
[1]
  Ki: 12.5 nM
Mouse EphA2 (Ecto) [6]
  Ki: 40.7 nM

B12: BCY6106 (peptide)
peptide: AXDCPLVNPLCLHPGWTC
modifications: not fully specified; as BCY6014 (N-terminal (β-Ala)-Sar10; HArg; TATA scaffold on the 3 Cys) + MMAE-D-Ala-Phe-Lys-
notes: Bicycle drug conjugate (BDC)
[5]
  Ki: 12.9 nM

B13: BCY6135 (peptide)
peptide: [βAla][Sar][Sar][Sar][Sar][Sar][Sar][Sar][Sar][Sar][Sar]A[hArg]DC[Hyp]LVNPLCLHP[dD]W[hArg]C
modifications: linker 15-22-29 via TATA; not fully specified (N-terminus, C-terminus); numbers in words are those of the source; also: DM1-SS- conjugate, site not given here
notes: Bicycle drug conjugate (BDC)
[4]
  Ki: 2.9 nM

## RPACPLVNPLCLHPGWTCA (linker 4-11-18 via TATA; not fully specified (C-terminus)) [Compound 70]
[2]
  Ki: 10.1 nM

## RPPCPLVNPLCLHPGWTCA (linker 4-11-18 via TATA; not fully specified (C-terminus)) [Compound 71]
[2]
  Ki: 11.1 nM

## ARDCPLVNPLCLHPGWTCA (linker 4-11-18 via TATA; not fully specified (C-terminus)) [Compound 65]
[2]
  Ki: 6.05 nM
Mouse EphA2 (Ecto) [3]
  Ki: 39.1 nM

B14: Compound 92 (peptide)
peptide: CPLVNPLCLHPGWSCXGQ
modifications: not fully specified; N-terminal Ac; HArg; C-terminal -Sar6-(D-K); TATA scaffold on the 3 Cys
[2]
  Ki: 10.6 nM
Mouse EphA2 (Ecto) [3]
  Ki: 75.3 nM

B15: Compound 78 (peptide)
peptide: CPLVNPLCLHPGWTCLXG
modifications: not fully specified; N-terminal Ac; D-His; C-terminal -Sar6-(D-K); TATA scaffold on the 3 Cys
[2]
  Ki: 15.6 nM
Mouse EphA2 (Ecto) [3]
  Ki: 115 nM

## AXDCPLVNPLCLHPGWTC (N-terminal (β-Ala)-Sar10; HArg; TATA scaffold on the 3 Cys, also called Compound 67) [BCY6014]
[2]
  Ki: 8.51 nM
Mouse EphA2 (Ecto) [3]
  Ki: 61.7 nM

## ACPLVNPLCLHPGWTCLHG (N-terminal (β-Ala)-Sar10; TATA scaffold on the 3 Cys) [Compound 75]
[2]
  Ki: 2.48 nM

B16: BCY6173 (peptide)
peptide: [βAla][Sar][Sar][Sar][Sar][Sar][Sar][Sar][Sar][Sar][Sar]A[hArg]DC[Hyp]LVNPLCLHP[dD]W[hArg]C
modifications: linker 15-22-29 via TATA; not fully specified (N-terminus, C-terminus); numbers in words are those of the source; also: DM1-SS(SO3H)- conjugate, site not given here
notes: Bicycle drug conjugate (BDC)
[4]
  Ki: 2.5 nM

B17: BCY6174 (peptide)
peptide: [βAla][Sar][Sar][Sar][Sar][Sar][Sar][Sar][Sar][Sar][Sar]A[hArg]DC[Hyp]LVNPLCLHP[dD]W[hArg]C
modifications: linker 15-22-29 via TATA; not fully specified (N-terminus, C-terminus); also: ValLys-MMAE conjugate, site not given here
notes: Bicycle drug conjugate (BDC)
[4]
  Ki: 3 nM

B18: BCY6039 (peptide)
peptide: AXDCPLVNPLCLHPGWTC
modifications: not fully specified; as BCY6014 (N-terminal (β-Ala)-Sar10; HArg; TATA scaffold on the 3 Cys) + DM1-(Me)-SS-(Me)-
notes: Bicycle drug conjugate (BDC)
[5]
  Ki: 9.4 nM

B19: BCY6032 (peptide)
peptide: AXDCPLVNPLCLHPGWTC
modifications: not fully specified; N-terminal (β-Ala)-Sar10 spacer precedes SEQ ID NO: 11; HArg (homoarginine) at residue 2 of SEQ ID NO: 11; three Cys cyclised on the TATA scaffold; DM1-SS-(Me)- (DM1-SPP) on the N-terminal amine
Human EphA2
  Kd: 2.1 nM
  t1/2: 2.2 min

B20: BCY6062 (peptide)
peptide: AXDCPLVNPLCLHPGWTC
modifications: not fully specified; as BCY6014 (N-terminal (β-Ala)-Sar10; HArg; TATA scaffold on the 3 Cys) + D-TrpCit-MMAE
notes: Bicycle drug conjugate (BDC)
[1]
  Ki: 12.9 nM
Mouse EphA2 (Ecto) [6]
  Ki: 20.3 nM

B21: BCY6061 (peptide)
peptide: AXDCPLVNPLCLHPGWTC
modifications: not fully specified; as BCY6014 (N-terminal (β-Ala)-Sar10; HArg; TATA scaffold on the 3 Cys) + ValLys-MMAE
notes: Bicycle drug conjugate (BDC)
[4]
  Ki: 14.2 nM
[1]
  Ki: 12 nM
Mouse EphA2 (Ecto) [6]
  Ki: 32.3 nM

B22: BCY6026 (peptide)
peptide: ACPLVNPLCLHPGWSCRGQ
modifications: linker 2-9-16 via TATA
notes: Bicyclic peptide on a TATA scaffold, no toxin; Made on Rink amide resin; also called Compound 87; Bicycle Compound Number 87
Human EphA2
  t1/2: 11.3 min

B23: Compound 74 (peptide)
peptide: Ac-CPLVNPLCLHPGWTCLHG
modifications: linker 1-8-15 via TATA; not fully specified (C-terminus); printed as Ac-CPLVNPLCLHPGWTCLHG
[2]
  Ki: 1.76 nM

## ACPLVNPLCLHPGWSCXGQ (not fully specified; N-terminal (β-Ala)-Sar10; HArg; TATA scaffold on the 3 Cys) [Compound 90]
[2]
  Ki: 5.41 nM
Mouse EphA2 (Ecto) [3]
  Ki: 47 nM

B24: BCY6077 (peptide)
peptide: AXDCPLVNPLCLHPGWTC
modifications: not fully specified; as BCY6014 (N-terminal (β-Ala)-Sar10; HArg; TATA scaffold on the 3 Cys) + DM1-SS-(Me)-SO3H-
notes: Bicycle drug conjugate (BDC)
[1]
  Ki: 6.5 nM
Mouse EphA2 (Ecto) [6]
  Ki: 25.3 nM

B25: Compound 79 (peptide)
peptide: ACPLVNPLCLHPG[2Nal]TCLHG
modifications: linker 2-9-16 via TATA; not fully specified (C-terminus); printed as ACPLVNPLCLHPG(2Nal)TCLHG
[2]
  Ki: 162 nM

B26: BCY6034 (peptide)
peptide: AXDCPLVNPLCLHPGWTC
modifications: not fully specified; as BCY6014 (N-terminal (β-Ala)-Sar10; HArg; TATA scaffold on the 3 Cys) + TrpCit-MMAE
notes: Bicycle drug conjugate (BDC)
[1]
  Ki: 5.9 nM
Mouse EphA2 (Ecto) [6]
  Ki: 35.9 nM

B27: BCY6036 (peptide)
peptide: Ac-CPLVNPLCLHPGWTCLHG
modifications: linker 1-8-15 via TATA; not fully specified (C-terminus); also: DM1-SS-(Me)- conjugated, site not given here
notes: Bicycle drug conjugate (BDC)
[1]
  Ki: 18.6 nM

B28: Compound 69 (peptide)
peptide: AXDCPLVNPLCLHPGWTCA
modifications: not fully specified; N-terminal Ac; HArg; C-terminal -Sar6-(D-K); TATA scaffold on the 3 Cys
[2]
  Ki: 17.5 nM
Mouse EphA2 (Ecto) [3]
  Ki: 164 nM

B29: Compound 76 (peptide)
peptide: ACPLVNPLCLHPGWTCLXG
modifications: not fully specified; N-terminal (β-Ala)-Sar10; D-His; TATA scaffold on the 3 Cys
[2]
  Ki: 10 nM
Mouse EphA2 (Ecto) [3]
  Ki: 75.2 nM

B30: BCY6031 (peptide)
peptide: AXDCPLVNPLCLHPGWTC
modifications: not fully specified; N-terminal (β-Ala)-Sar10 spacer precedes SEQ ID NO: 11; HArg (homoarginine) at residue 2 of SEQ ID NO: 11; three Cys cyclised on the TATA scaffold; DM1-SS- (DM1-SPDB) on the N-terminal amine
Human EphA2
  Kd: 1.99 nM
  t1/2: 2.3 min
